Literature values as cited in US8501705B2, “Methods and materials for treating autoimmune and/or complement mediated diseases and conditions” (The Board of Regents of the University of Texas System, priority 2003, dated 2013).

Biological target: C3 (Mus musculus, UniProt P01027)
Details: inhibition of C3

Chain of C3 (P01027 25-1663): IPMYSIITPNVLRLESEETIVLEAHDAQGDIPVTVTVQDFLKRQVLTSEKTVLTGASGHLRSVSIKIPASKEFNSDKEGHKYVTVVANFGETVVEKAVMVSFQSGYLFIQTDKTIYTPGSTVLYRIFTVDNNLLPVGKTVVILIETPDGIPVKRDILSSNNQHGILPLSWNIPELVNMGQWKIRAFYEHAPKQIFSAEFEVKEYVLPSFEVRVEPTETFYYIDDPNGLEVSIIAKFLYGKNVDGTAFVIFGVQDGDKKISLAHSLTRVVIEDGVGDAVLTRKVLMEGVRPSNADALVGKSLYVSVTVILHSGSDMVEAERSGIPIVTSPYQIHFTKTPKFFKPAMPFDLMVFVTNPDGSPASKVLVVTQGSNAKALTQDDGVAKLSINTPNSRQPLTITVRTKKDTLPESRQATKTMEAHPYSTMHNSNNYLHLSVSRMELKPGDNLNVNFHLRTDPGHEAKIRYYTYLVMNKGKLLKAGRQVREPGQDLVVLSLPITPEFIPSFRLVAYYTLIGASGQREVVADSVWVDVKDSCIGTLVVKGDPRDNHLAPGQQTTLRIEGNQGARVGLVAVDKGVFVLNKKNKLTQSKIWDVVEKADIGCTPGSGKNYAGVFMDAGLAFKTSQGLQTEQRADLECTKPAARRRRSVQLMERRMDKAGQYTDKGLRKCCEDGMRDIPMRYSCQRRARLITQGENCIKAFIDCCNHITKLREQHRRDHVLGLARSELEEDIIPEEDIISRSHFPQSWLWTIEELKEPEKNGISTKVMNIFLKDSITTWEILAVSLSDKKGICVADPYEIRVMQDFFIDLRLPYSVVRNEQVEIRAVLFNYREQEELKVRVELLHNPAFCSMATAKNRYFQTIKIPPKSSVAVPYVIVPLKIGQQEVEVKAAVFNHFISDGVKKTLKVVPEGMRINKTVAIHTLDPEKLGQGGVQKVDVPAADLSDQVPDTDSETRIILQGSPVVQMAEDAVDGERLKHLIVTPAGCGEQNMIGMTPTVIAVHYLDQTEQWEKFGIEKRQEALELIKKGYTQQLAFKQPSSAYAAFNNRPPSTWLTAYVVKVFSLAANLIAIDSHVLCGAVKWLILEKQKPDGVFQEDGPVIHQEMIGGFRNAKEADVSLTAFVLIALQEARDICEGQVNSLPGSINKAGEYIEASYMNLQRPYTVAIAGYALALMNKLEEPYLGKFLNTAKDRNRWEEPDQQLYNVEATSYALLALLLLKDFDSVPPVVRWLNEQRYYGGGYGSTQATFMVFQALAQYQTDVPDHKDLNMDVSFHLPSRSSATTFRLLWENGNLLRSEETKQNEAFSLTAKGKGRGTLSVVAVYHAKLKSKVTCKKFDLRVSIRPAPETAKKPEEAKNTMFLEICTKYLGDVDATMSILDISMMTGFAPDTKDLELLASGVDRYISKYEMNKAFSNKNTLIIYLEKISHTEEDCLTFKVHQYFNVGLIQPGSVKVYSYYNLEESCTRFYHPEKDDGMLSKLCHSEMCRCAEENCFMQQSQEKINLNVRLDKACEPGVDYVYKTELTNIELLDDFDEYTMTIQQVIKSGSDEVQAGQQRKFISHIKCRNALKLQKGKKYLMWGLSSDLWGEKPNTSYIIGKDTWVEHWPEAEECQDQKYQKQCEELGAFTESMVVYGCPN

Substance: cobra venom factor
- EAMG disease induction: inhibits disease induction
